Where a chain is given by its changes, count along the chain named.
T1: human IL-7 (human, UniProt P13232 26-177)
T1 construct: also called TSLP homologous protein IL-7
T1 sequence (looked up): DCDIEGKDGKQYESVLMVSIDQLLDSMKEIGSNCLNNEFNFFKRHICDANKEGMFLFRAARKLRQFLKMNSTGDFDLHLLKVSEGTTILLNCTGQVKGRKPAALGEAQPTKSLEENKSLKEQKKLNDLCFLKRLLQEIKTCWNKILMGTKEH

B1: TSLP-0101 (antibody, V domains shown)
VH: QVQLQESGPGLVKPSETLSLTCAVSGYSISSGYGWSWIRQPPGKGLEWIGYISYYGSISYNPSLKSRVTISRDTSKNQFSLKLSSVTAADTAVYYCARTNLLYFDSWGQGTLVTVSS
VL: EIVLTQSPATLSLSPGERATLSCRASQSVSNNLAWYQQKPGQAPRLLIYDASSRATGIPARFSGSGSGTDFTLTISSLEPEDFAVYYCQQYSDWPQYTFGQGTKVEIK
B2: TSLP-0103 (antibody, V domains shown)
VH: B1 VH with A23T
VL: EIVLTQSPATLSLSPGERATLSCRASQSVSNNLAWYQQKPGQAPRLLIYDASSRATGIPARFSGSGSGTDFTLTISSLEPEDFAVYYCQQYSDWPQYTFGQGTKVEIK
B3: TSLP-0102 (antibody, V domains shown)
VH: B1 VH with A23T
VL: EIVMTQSPATLSLSPGERATLSCRASQSVSNNLAWYQQKPGQAPRLLIYDASSRATGIPARFSGSGSGTDFTLTISSLEPEDFAVYYCQQYSDWPQYTFGQGTKVEIK
B4: TSLP-0105 (antibody, V domains shown)
VH: B1 VH with R72V
VL: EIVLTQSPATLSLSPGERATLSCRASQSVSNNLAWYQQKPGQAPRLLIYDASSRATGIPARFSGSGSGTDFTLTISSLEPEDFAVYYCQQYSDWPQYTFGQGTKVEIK
B5: TSLP-0104 (antibody, V domains shown)
VH: B1 VH with R72V
VL: B3 VL
B6: TSLP-0106 (antibody, V domains shown)
VH: B1 VH with A23T, R72V
VL: B3 VL
B7: TSLP-02 (antibody, V domains shown)
VH: QVQLVQSGAEVKKPGSSVKVSCKASGFTFGSYGINWVRQAPGQGLEWLGVIVPLVGVTIYAEKFQGRVTITADTSTSTAYMELSSLRSEDTAVYYCARGQEYFYWYFDLWGQGTLVTVSS
VL: QSALTQPPSASGSPGQSVTISCSGSSSDIGGYNRVSWYQQHPGKAPKLMIYDVSKRPSGVPDRFSGSKSGNTASLTVSGLQAEDEADYYCSSYAGTDTFILFGGGTKLTVL
notes: also called parent antibody TSLP-02
B8: TSLP-0204 (antibody, V domains shown)
VH: B7 VH
VL: B7 VL with S23T, S25T, D52E, S54N, P57S, S91T, I100V
B9: TSLP-0203 (antibody, V domains shown)
VH: B7 VH
VL: B7 VL with S23T, S25T, N33D, D52G, G95S, T96G, D97H, I100G
B10: TSLP-0201 (antibody, V domains shown)
VH: B7 VH with L48M
VL: B7 VL
B11: TSLP-0112 (antibody, V domains shown)
VH: B1 VH with I58T, S106Y
VL: B3 VL with N31S, N32Y, T98S
B12: TSLP-0111 (antibody, V domains shown)
VH: B1 VH with I52F, I58T
VL: B3 VL with N31S, D93N, T98S
B13: TSLP-0110 (antibody, V domains shown)
VH: B1 VH with I58T
VL: B3 VL with N31S, N32Y, A51T, D93N, T98S
B14: TSLP-0109 (antibody, V domains shown)
VH: B1 VH with I58T, D105E
VL: B3 VL with S28G, V29I, N31S, N32Y, S53N, R54L, A55Q, T56S, D93N, T98S
B15: TSLP-0108 (antibody, V domains shown)
VH: B1 VH with I58T
VL: B3 VL with Q96E, T98S
B16: TSLP-0206 (antibody, V domains shown)
VH: B7 VH with N35S, G56D
VL: B7 VL with S23T, S25T, S26I, D52E, I100V, L101F
B17: TSLP-0207 (antibody, V domains shown)
VH: B7 VH with N35S
VL: B7 VL with S23T, S25T, D52E, V53F, S54N, T98I, I100V
B18: TSLP-0205 (antibody, V domains shown)
VH: B7 VH
VL: B7 VL with S23T, S25T, S26T, D52E, I100A, L101I
B19: TSLP-0208 (antibody, V domains shown)
VH: B7 VH with N35S, V52I, V55L, T58P, I59N, Q100A
VL: B7 VL with S23T, S26N, D52E, V53I, I100V
B20: TSLP-0301 (antibody, V domains shown)
VH: EVQLVESGGGLVQPGGSLRLSCAASGFTFSNYDMTWVRQAPGKGLEWVSSITFASSYIYYADSVKGRFTISRDNAKNSLSLQMNSLRAEDTAVYYCTRGGGAYYGGSLDVWGQGVLVTVSS
VL: DIVMTQTPLSLSVTPGEPASISCRSSQSLLHSNEYTYLHWYLQKPGQSPQLLIYLVSHRASGVPDRFSGSGSDTDFTLKISRVEAEDVGVYYCEQTLQTPFTFGGGTKVEIK

Molecular target: T2, human TSLP (human, UniProt Q969D9 29-159)
Assay: cell-based or functional assay

T2 sequence (Q969D9 29-159 R127A/R130S limits assumed): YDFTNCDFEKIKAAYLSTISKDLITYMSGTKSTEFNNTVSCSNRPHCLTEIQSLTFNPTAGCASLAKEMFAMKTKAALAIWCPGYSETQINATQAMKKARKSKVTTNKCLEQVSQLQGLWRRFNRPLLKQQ

IC50, inhibition of human TSLP-induced Stat5 activation (Stat5-luciferase reporter, Ba/F3 cells with hTSLPR and hIL7Ra)	Binder
0.0092 µg/mL	B1
0.0129 µg/mL	B2
0.0114 µg/mL	B3
0.0182 µg/mL	B4
0.0154 µg/mL	B5
0.0169 µg/mL	B6

Molecular target: T2, human TSLP
Assay: ELISA, plate coated with human TSLP, test antibodies as human IgG1
Method: (§1) ELISA Screening: Monoclonal scFv antibodies were selected and subjected to ligand binding assays. The first assay was designed to identify scFv antibodies that bound human TSLP and/or cynomolgus TSLP. Briefly, a 96-well plate was coated with human TSLP or cynomolgus TSLP in PBS at 0.1 μg/well and left overnight at 4° C. Before loading the scFv antibodies, the plates were washed with TBST, blocked for 1-2 hours at 37° C. using 5% milk and washed again with TBST. Each scFv sample was first diluted to 40 μg/mL, and 150 μL was added to the first row of wells. The 40 μg/mL scFv samples were then serially diluted at a 1:3 ratio and added to the remaining wells. After incubating for an hour at 37° C., followed by washing with TBST for 6 times, 100 μl of the secondary antibody (HRP labeled mouse anti-flag (1:2500)) was added to each well. After incubation for an hour under 37° C., the plate was washed for 3 times using TBST. TMB was then added at 100 μL/well and incubated for 10-20 minutes at 37° C. 2 M H₂SO₄ was used to stop the reaction. The ELISA results (OD405) were then analyzed and the binding curves were generated by PRISM.

EC50 (read off the curve)	Binder
~0.09 µg/mL	B7
~0.1 µg/mL	B8
~0.1 µg/mL	B9
~0.07 µg/mL	B10

Molecular target: T2, human TSLP
Assay: as above
Remark: another data set of the same source
Method: as §1

EC50 (read off the curve)	Binder
~0.08 µg/mL	B11
~0.08 µg/mL	B12
~0.08 µg/mL	B13
~0.07 µg/mL	B14
~0.06 µg/mL	B15

Molecular target: T3, cynomolgus monkey TSLP (cynomolgus monkey, UniProt A0A7N9CAT7 29-159)
T3 construct: also called cynomolgus TSLP; recombinant cynomolgus monkey TSLP
Assay: ELISA, plate coated with cynomolgus monkey TSLP, test antibodies as human IgG1
Method: as §1

T3 sequence (A0A7N9CAT7 entry or part of it): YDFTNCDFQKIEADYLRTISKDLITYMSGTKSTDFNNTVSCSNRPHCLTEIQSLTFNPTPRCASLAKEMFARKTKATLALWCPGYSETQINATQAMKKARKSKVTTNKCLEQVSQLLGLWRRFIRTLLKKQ

EC50 (read off the curve)	Binder
~0.7 µg/mL	B7
~0.2 µg/mL	B8
~0.3 µg/mL	B9
~0.7 µg/mL	B10

Molecular target: T2, human TSLP
Assay: cell-based or functional assay
Remark: another data set of the same source

IC50, inhibition of human TSLP-induced Stat5 activation (Stat5-luciferase reporter, Ba/F3 cells with hTSLPR and hIL7Ra)	Binder
0.00667 µg/mL	B7
0.00463 µg/mL	B10

Molecular target: T2, human TSLP
Assay: ELISA, plate coated with human TSLP, test antibodies as human IgG1
Remark: another data set of the same source
Method: as §1

EC50 (read off the curve)	Binder
~0.04 µg/mL	B16
~0.05 µg/mL	B17
~0.04 µg/mL	B18
~0.1 µg/mL	B19

Molecular target: T4, TSLP-His (human, UniProt Q969D9 29-159, limits assumed)
T4 construct: also called his-tagged TSLP; not shown: His-tag
Assay: HTRF competition: blocking of TSLP-his binding to HEK293-Flag-hTSLPR-IL7Ra cells, IgG1

T4 sequence (Q969D9 29-159 R127A/R130S limits assumed): as the sequence (Q969D9 29-159 R127A/R130S limits assumed) above

IC50	Binder
0.379 µg/mL	B2
0.158 µg/mL	B15
0.229 µg/mL	B7
0.428 µg/mL	B8
0.383 µg/mL	B9
0.351 µg/mL	B10

Molecular target: T1, human IL-7
Assay: ELISA on human IL-7

binding result	Binder
no binding	B2
no binding	B7

Molecular target: T3, cynomolgus monkey TSLP
Assay: ELISA, plate coated with cynomolgus monkey TSLP, test antibodies as human IgG1
Remark: another data set of the same source
Method: as §1

EC50 (read off the curve)	Binder
~2 µg/mL	B20

Molecular target: T2, human TSLP
Assay: ELISA, plate coated with human TSLP, test antibodies as human IgG1
Remark: another data set of the same source
Method: as §1

EC50 (read off the curve)	Binder
~0.03 µg/mL	B1
~0.04 µg/mL	B2
~0.04 µg/mL	B3
~0.05 µg/mL	B4
~0.04 µg/mL	B5
~0.05 µg/mL	B6

Molecular target: T2, human TSLP
Assay: cell-based or functional assay
Remark: another data set of the same source

IC50, inhibition of TSLP induced proliferation of Ba/F3-TSLPR-IL7Ra cells (CellTiter-Glo)	Binder
0.214 µg/mL	B11
0.244 µg/mL	B12
0.129 µg/mL	B13
0.0304 µg/mL	B14
0.0394 µg/mL	B15
0.217 µg/mL	B20
0.0175 µg/mL	B7
0.0651 µg/mL	B16
0.0422 µg/mL	B8
0.133 µg/mL	B17
0.0363 µg/mL	B9
0.284 µg/mL	B18
0.0185 µg/mL	B10

Molecular target: T3, cynomolgus monkey TSLP
Assay: ELISA, plate coated with cynomolgus monkey TSLP, test antibodies as human IgG1
Remark: another data set of the same source
Method: as §1

EC50 (read off the curve)	Binder
~0.7 µg/mL	B1
~0.7 µg/mL	B2
~0.7 µg/mL	B3
~0.7 µg/mL	B4
~0.7 µg/mL	B5
~0.9 µg/mL	B6

Molecular target: T3, cynomolgus monkey TSLP
Assay: as above
Remark: another data set of the same source
Method: as §1

EC50 (read off the curve)	Binder
~0.3 µg/mL	B16
~0.3 µg/mL	B18
~0.3 µg/mL	B19

Molecular target: T2, human TSLP
Assay: cell-based or functional assay
Remark: another data set of the same source

IC50, inhibition of human TSLP-induced Stat5 activation (Stat5-luciferase reporter, Ba/F3 cells with hTSLPR and hIL7Ra)	Binder
0.0308 µg/mL	B11
0.0438 µg/mL	B12
0.0245 µg/mL	B13
0.0228 µg/mL	B14
0.0108 µg/mL	B15
0.0417 µg/mL	B20
0.0183 µg/mL	B16
0.0189 µg/mL	B8
0.025 µg/mL	B17
0.0215 µg/mL	B9
0.0421 µg/mL	B18

From patent US20250277022A1 (STAIDSON BEIJING BIOPHARMACEUTICALS, published 2025)
